Reference: the DeepSol protein solubility set

Test: soluble on expression in E. coli; label from the status in PepcDB or PDB records

Soluble on expression in E. coli, soluble:
MSLEEDIQKQIIAAKEEAHDETIWGKPANDIITGIGNNSGVRPQRAIWEMVQNARDVSLNGKADIVFERQHDCFIFQHNGISFTNNTLEALILQTSSKVRNDSVQVGQYGTGFLTTHKLGLKFTLSSSVQLLENEQLFHHFSNFLIDRSSTDKKQMRDSLKKQIKITEEWARNPTIVSGPSSLTTFRYIQEHEVEKMNTKEAFKASSALAPYVIALNPCVNSISFVDNVEDCKELYIRKSTEIINTCDFYNVVKVTIDKCETESCDFTVLMLQSKETVEESGEPKVIVILPIKELESKSVAFALSKDVPNLFIYLPLLGTEQWGLNFIFHSPLFTCDKDSRDSLRFVGNGQNNDVDAERNKGIIQLADVIVSHYITENLSNIQDCMYLAKVAFNLHNSDEALANYYKSLQSSWVKKYESFPFVITKNGNIITRQAKVFDKELFDACLENKDLLTAVYNVTVQIYGTDYLPLETNMLFWSETLLQWYEAESFNPHLIHLSDIVEYIDKNNITTIGEENLWCIDNYIANSKQIGLFTKYKLLPTKNGELRVREDLLNPIIHDESLLKILDSLLPNDVASFIHTRFVLFEDVKIEEYDHNKVKESMRLLVSELSDLQKGHEIYRTNILAGLDVDSNKYEQNKLSDNHINALMGFYAYIVNIGGEAFQYKMIHLLADFYNIDLKSGEAYIKEIYDWRTVAPLLIKDALFRFTLMDSQKQAENAEWVRQMVIALYNYSDYRTYLDKYTVYPNEMDKYCYSKKISKSVNITNDLIALYDKIVNNENGENMCKSIKCVLLKNTYNDYFVENATIEGSSLAEKIMLEIKREGAYPDISANKWKQQILDIIAKQDKDVYWASIFGEIDSSKGAILLSVIQEKEKKDSILSLIRVSDTKKLKALAEVAEDDNLARIIELGKAALRDEMNSEADFEYKKKLGEYVEELIRKEIDSKLKAGSHIMEVLSQQDGQDIIILLDGTAIYYIEVKSRWSQKDSVLMSALQFRTSVEEKTHYALCEVDMITYNRENVDKHEFPDVEETINRISAIMNIGVLNETLKDTLNQDSDQVHVGGDYKVVVPQTVWEEHGKHFNELVEEIKKIVEEKEGHHHHHH
DTVANASGPLMVEIVKTPGSALGISLTTTSLRNKSVITIDRIKPASVVDRSGALHPGDHILSIDGTSMEHCSLLEATKLLASISEKVRLEILPVPQSQRPLRPS
MSLSNPLNDLSKKYLTKGLNLASWAEANKITSANPKDWKYNEAIIKLQAEQGLLGIRFPIDLDLYVVDRLNVLNGTKKKIEIEPMLYTLMDSMNIWTKRYGLSLTIDYHAYDGSYNRASSKDPKFREAVSSLWRVVAQHFVKEKREDLFFELTNEPCLSLPEGEYIDQTDWTLLAQMMIDSIRRVDKTRPIIFGDTKWYSLDELIKNKPLKDPYVIYCFHMYDPFLFTHQGASWANMGTMKNIPFPYSPERWSTEFRDFGIVDGTPAWVKDLAKRYYQEGNKQFIKNRLAKVKNWAYEYNVPLICNEWGALPNTAKIEDLNAYFKTMGEIFEEMDISWQVWFGIMDSDYKLLPGMAEALHLKEGHHHHHH
GAMEAIYAYEAQGDDEISIDPGDIITVIRGDDGSGWTYGECDGLKGLFPTSYCK
MGSSHHHHHHSSGLVPRGSHMHVQAKFSNNLNIFEYSIVIRKIFYLGPPGSFSQEAAEIFGSDLVPVRSISEIFHKISVTGDYGIVPIENSIEGPVNETLDGLFRHEDIYIVDHVEIPIEIFLASNCDTENIRRIYSHPHAIAEAGDYLERTENIEVIRTSSTSEAAKLASMDEAGAALCSMKAAQHYGLANTVKIESKSRNITRFILIGRERNVEGSRHIILCVIPDRPGSLHSLIGVLASRGINMNMIYSRPLRDTIWKYYFYIEFSGKLDEDLLLTMGKQSLRILYKGSFKCCR
MLELFLKEEWTTEAKEILRPFGQKKLIGIQMGASNRSRQWFVERWIELAKRIIERDEEVVIVFVGSKNELEEISLVAQALPQDRVFISAGRLSLGAAAALIGELGLLFTPDTGPLHIAVALRVKTISLFAVANPKNSLPDYDQSLHRYIKVDRCCEPCVGKRCAYQKCMEAIGVDEVYEEYKKLQELEHHHHHH

Soluble on expression in E. coli, not soluble:
MGSDKIHHHHHHMKTAALFVSKEFEEEAIALVEGANYKVTSIYKLPKSPNVKFYIQYDKLQQIKNDEEISTLIIFEQLKPRHFINIRRELKGKEVLDKILLLLEIFALHAGSKEAKMQIELARLKYELPIIKETYTKSKIGEQQGPLGAGTYGVESTIKFYKRRINKLMKELESIKIFKEKSIESNKRNNIPSIGIVGYTNSGKTSLFNSLTGLTQKVDTKLFTTMSPKRYAIPINNRKIMLVDTVGFIRGIPPQIVDAFFVTLSEAKYSDALILVIDSTFSENLLIETLQSSFEILREIGVSGKPILVTLNKIDKINGDLYKKLDLVEKLSKELYSPIFDVIPISALKRTNLELLRDKIYQLATQLS
MQSPPHDPASALAIRNHYRQSQSRAARLRLLVDTGQELIQLPPEAMRKCVLQRACAFVAMDHGLLLEWGADNGVQTTARHGSKERLSTLETTADPLAIGPQWLERPGTHLPCVLLLPLRGADEGSFGTLVLANSVAISAPDGEDIESLQLLATLLAAHLENNRLLEALVARDRT
MDEKKLFENFQLTFGRMISPFEIEDIQKWIHEDNMPIEVVNLALREAVENNKISWKYINKILVDWYKSGDTTVEKVRDRLQRFDDSKKQRSVTTSNVPSWSNPDYKEPDLEEFALGSMDGIEDGSGDF
MGSDKIHHHHHHMRTRDMLPILETLDESGIYSLEVWGGATFDACHRFLNENPWERLREIRKRVKNAKLQMLLRGQNLVGYRHYPDDIVEKFVQKTIENGLDVFRIFDALNDVRNLISSIKAAKKYNADHIQGTICYTISPVHTVEKYVEIANELAALEVDSICLKDMAGMLSPKMAYELVKALKKEVGLPINVHSHYTSGMASMALLKGVEAGAEMIDTCMSPLSSGTSHPPTESMVYALNELGYDTGVKLDILLEAREYFMKIREKYSGYLNPLSTIPDTRVLVYQIPGGMFSNLIAQLQEQNALDRLQEVLEEVPRVREDLGYPPLVTPTSQIVGVQAVINVLVGERYKVVTRETKDLVKGMYGRTPAPIKPEIVKKILGDEKPIDCRPADLLEPEFEKRKQELIEAGIENPSDEDVLLYALFPQTGLKFLKGEMVEEPFPVAGGKIEGSFEVEIDGQKYVVKVAPEK
MAHHHHHHMGYGGPRVEFYTANQYSNFAAAIDRENAARVRSILHRRNLPAEQEAQRQREAAFRAYERAQADEVARSHAEEAEALERRRVKDERAQRRLATKTRRRSLTAAEVASRRSRHACLCRLAEPRKYQEAMYGSGMIGGAMPHQSGRDGKLPTVGRNGAVYCAGVDRDRIVPSRPALEGTVPPWKGSYSTHHGPHKLDAQMAKEAAAYYCAHPAPQRSASEQDMRQQTLQSIAAEHSMAAQQDGADVGMADASGAKGRSSVADAVQWHRMGSDNVDDEAGSIFSHGSSNGPIAATGNMHLSTTSTKHSVQLHLSRYGGAMTAPRPWRPSKAASENLTLPELADRLVCIQMSKSVVR
MGSDKIHHHHHHMLNRLRAFRERGWREVDAPTYAQAWQRFGGSVATHPLVVEQLAEMAGIPVRYLGWESAGELVAAIPTWGRHLALSKDVLKRRGKKGLYDLGNAELILPVAGDARIALRHAGRYLSALHERNIVTLRPQTEQLAFARAPEDFSKKFRYNQRREVRLVEEAGGQVRQADSFAPAEFAAIYLELFQRRWGFPATGAERMAEVFERLRELLRGSVLLLNDQPIAVQVLYRAEAPGWLSVEYINGGVDPQTREFSPGSVLSYLNTQAAWEDARALGKPLRYSFGRADREYKDRWCHPSPVFQV
MGSDKIHHHHHHMSELTQLFPQPLWQWFAQICAIPHPSKHEQALSLHIQQWAKDKGLSVIEDKVGNLIIKKPAFAGMEDRKKVVLQAHLDMVPQKNADKVHNFETDPIEAYIDGDWVKAKGTTLGSDNGIGMASALAILGSDSIKHGPLEVLLTIDEEAGMTGAFGLEAGMLEAEILINTDSEQEGEIYMGCAGGVDGQISLPMSWQSPEQSNSSFNLTLSGLKGGHSGVNIHLGRGNANKLLARFLFDYADDLALELVSFSGGSLRNAIPREASISFMLPPENLTALNQAIADFQALVREELAIADPGMLLTLVEVPAHTKVMGEDSQNTLIDLLHVCPNGVIRMSDEVEGVTETSLNVGVISTHDDSVEILCLIRSLIDSGRSEVTGMITALTHLAGADVEFSGAYPGWKPDTSSPVMAIVRETYNDIYHKDPTVMVIHAGLECGLFKEPYPAMDMVSIGPTIRYPHSPDEMVNITTVGQYWQLLLAVLERIPVRG
MGSDKIHHHHHHMTAPLKSLFLLDPSVTYLNHGAYGATPRPVFERHVQWQYELEREPVDFLSRRFAERMAQARAILAEYVDTERDNLVYVSNGTTGVNIVARSLPLGPGDELLTTDHEHGGIERLWRFTAQKRGFEIVRHKVSLPVTTHARFVEDFWRDVTPRTRAILISQLTSPTALVFPVAAICARARARGILTIVDGSHVPGQLPLSLREMDPDFYVGILHKWVCAPKGSAFLYARPDVQPLVEPLVVSWGWEPKNPGPSKFVEYHEWQGSRDISAFLSVPSAIAFQREHDWDGVRKRCIALASDAQREVAALTREPLYHPPGAHEWHGQMVCAQLPPQTDDIALLARLRNECGIDVSVDRFGGRPRIRVSIQGYNGPDDVDRLLGSLKQLLRL
MKIAGLKQLNTALKEAASGGFSRQASRWLEECGQDFLEIVQSELISTQTIDTEKLLSSFEKGAEDNLWIVQSGGLSLEVGTQLDYASFLNDGHWTSKQDVRWVPGRFQGSRFIYDPAASTGMALKRKWIPGTGYWDHALLLYEQLFEKSLESKLRQWLKKL
MKCRSKISLIAASLWLAAFSAQALEAKLKPEDLPLLVPEAQHATAAKRVTSRFTRSHYKQFNLDDQFSQAMFERYLEMLDYSRNIFTQADIDSFKAWSLQLDDQLKAGDNQIAYDLYNLSMEKRFERFQYALSLLDQEMTFDADESIELDRTKSPWPKDLKEINELWRQRVKYDALSLKLAGKEWPEIKETLDKRYNNAIKRLTQTKSEDVFQTYMNAFAREVDPHTSYLSPRNAEQFQSEMNLSLEGIGAVLQMTDDYTIIRSLVAGGPAALSKQLGEGDRIIGVGQEGEDVVDVVGWRLDDVVQLIKGPKGSKVKLLVLPEGKDAKSHVVTIVRDKIRLEDRAVKSEVIEKAGKKIGVLEVPSFYVGLAQDTEKLLAELKAKKVDGIIVDLRNNGGGALTEATALSGLFITSGPVVQVRDSYGRVNVNSDTDGSISYSGPMTVLINRYSASASEIFAAAMQDYGRAIILGENSFGKGTVQQHRSLNHIYDLFDKELGYVQYTIQKFYRIDGGSTQNKGVVPDIAYPTAIAPSETGESVEDNALPWDSIDKAKYERLNNFNTIIASLEAKHQQRVANDLEFGFIEQDIAKYRAEKDDNLLSLNEKVRKEESAKADEERLARINQRQKALGKSTYASLQDIPKDYEAPDAYLDESVNIMLDMISR
MKAFDIMKASQIACCFEVGSFKPGNVHKNRDYDDIKYHHFISSGIAFGDVIHQACLEKNNIGNFIKKGVIESKKWSPTNANLGIIMLHMPIAIAASNLDKFSESALKKETEKIIKNTTVQDAIDVYRAIEIALAFVNAPENGPDLKSKDAKDELIEKNLTLYDVFKISSTWDSISNEWTENFKISYKGYNLIKEYYEKYNNINIAVTKTFINLLSNYPDTLIARKKGIDVSKMVSEKAKEVLNNFNEESVLEFDKFLSKEGNKLNPGTTADLIASSLLIFLLDRISNEKTILY
GPSLSGELHIFCSVTAAYSHLPPILDRFRAEHPSVEIKLTTGDAADAMEKVVTGEADLAIAGKPETLPGAVAFSMLENLAVVLIAPALPCPVRNQVSADKPDWSTVPFIMADQGPVRRRIELWFRRNKISNPMIYATVGGHEAMV
